Reference: patent US9555076B2, “Neuregulin based methods and compositions for treating cardiovascular diseases” (Zensun (Shanghai) Science & Technology, Co., Ltd., priority 2002, dated 2017)
Where “and” joins values, the source holds several entries; their conditions need not be identical. Equal entries are not always repeated. Marks after values point to notes of the source that are not given here.

Test system: acute myocardial injury caused by viral (Coxsackie B3) infection in mice
Test: Survival of mice infected with Coxsackie B3 virus
Assay type: in vivo, BALB/C mice
Conditions: for relative survival rate: mice
Procedure: 0.2 ml of 100×TCID50 CVB3 provided by Zhong Shan Hospital affiliated to Fudan University was injected intra-abdominally and established myocarditis model. Within the following week, the mouse manifested pilo-erection, depilation, emaciation, dullness and death, about half of the tested animals died at the 8th day.
Intravenous injection of the testing drug into the tail vein was carried out the same day of intra-abdominal viral infection in mice, the injection was performed for consecutive 5 days, animal survival rate was monitored, after completion of the experiment, echocardiograph, myocardial pathologic examination, serum troponin determination were carried out.
The death status of model animals in various testing drug group was monitored.
• Normal mice control group, model group and testing drug group were set up; • Normal mice control group (n=10); • Model group (n=20): Prepared buffer solution was injected; • Testing drug group (n=20): […] courses with 20 animals assigned for each group; • Placebo control group (n=20): Intra-abdominal injection of non-CVB3 freeze-thaw cellular supernatant, 0.2 ml/animal. 10.2 Dosage Set Up, Preparation of Testing Drug, Route of Drug Administration, Times of Drug Administration, Concentration and Volume of the Testing Drug • rhNRG-1β was diluted with preparation buffer solution (10 mM PB, 0.2% human serum albumin, 5% mannitol to needed concentration; • Three drug administration groups were set up, intravenous injection for consecutive 3-day, 5-day and 7-day, drug volume for each dose was 0.2 ml/animal; • Drug administration of the model group was intravenous injection into the tail vein of mice, once every day (qd), for consecutive 7 days, drug volume for each dose was 0.2 ml/animal. 7.3 Method of the Experiment 7.3.1 Set Up of Acute Viral Myocariditis Animal Model in Mice

B1: rhNRG-1 β: Recombinant human neuregulin fragment of 61 amino acid (SEQ ID NO:4), 3 disulfide bonds, expressed in E. coli (protein, listed as Homo sapiens)
chain: SHLVKCAEKEKTFCVNGGECFMVKDLSNPSRYLCKCPNEFTGDRCQNYVMASFYKAEELYQ
modifications: disulfide (positions not given here)
Number of survival animals (mice n = 20, 30 μg/kg iv qd × 7, 7th day, (II)): 18
Number of survival animal (mice n = 20, 30 μg/kg iv qd × 7, killed, (I)): 17*
Number of survival animals (mice n = 20, 30 μg/kg iv qd × 7, killed, (II)): 18*
relative survival rate (5 μg/kg (so in the source) iv qd × 5, 1st day, (I)): 100%
relative survival rate (5 μg/kg (so in the source) iv qd × 5, 2nd day, (I)): 100%
relative survival rate (5 μg/kg (so in the source) iv qd × 5, 3rd day, (I)): 100%
relative survival rate (5 μg/kg (so in the source) iv qd × 5, 4th day, (I)): 95%
relative survival rate (5 μg/kg (so in the source) iv qd × 5, 5th day, (I)): 90%
relative survival rate (5 μg/kg (so in the source) iv qd × 5, 6th day, (I)): 75%
relative survival rate (5 μg/kg (so in the source) iv qd × 5, 7th day, (I)): 65%
relative survival rate (5 μg/kg (so in the source) iv qd × 5, killed, (I)): 50%
relative survival rate (7.5 μg/kg iv qd × 5, 1st day, (II)): 100%
relative survival rate (7.5 μg/kg iv qd × 5, 2nd day, (II)): 100%
relative survival rate (7.5 μg/kg iv qd × 5, 3rd day, (II)): 100%
relative survival rate (7.5 μg/kg iv qd × 5, 4th day, (II)): 90%
relative survival rate (7.5 μg/kg iv qd × 5, 5th day, (II)): 85%
relative survival rate (7.5 μg/kg iv qd × 5, 6th day, (II)): 70%
relative survival rate (7.5 μg/kg iv qd × 5, 7th day, (II)): 55%
relative survival rate (7.5 μg/kg iv qd × 5, killed, (II)): 50%
relative survival rate (15 μg/kg iv qd × 5, 1st day, (I)): 100%
relative survival rate (15 μg/kg iv qd × 5, 1st day, (II)): 100%
relative survival rate (15 μg/kg iv qd × 5, 2nd day, (I)): 100%
relative survival rate (15 μg/kg iv qd × 5, 2nd day, (II)): 100%
relative survival rate (15 μg/kg iv qd × 5, 3rd day, (I)): 100%
relative survival rate (15 μg/kg iv qd × 5, 3rd day, (II)): 100%
relative survival rate (15 μg/kg iv qd × 5, 4th day, (I)): 100%
relative survival rate (15 μg/kg iv qd × 5, 4th day, (II)): 95%
relative survival rate (15 μg/kg iv qd × 5, 5th day, (I)): 95%
relative survival rate (15 μg/kg iv qd × 5, 5th day, (II)): 90%
relative survival rate (15 μg/kg iv qd × 5, 6th day, (I)): 85%
relative survival rate (15 μg/kg iv qd × 5, 6th day, (II)): 80%
relative survival rate (15 μg/kg iv qd × 5, 7th day, (I)): 70%
relative survival rate (15 μg/kg iv qd × 5, 7th day, (II)): 65%
relative survival rate (15 μg/kg iv qd × 5, killed, (I)): 65%
relative survival rate (15 μg/kg iv qd × 5, killed, (II)): 65%
relative survival rate (30 μg/kg iv qd × 3, 1st day, (I)): 100%
relative survival rate (30 μg/kg iv qd × 3, 1st day, (II)): 100%
relative survival rate (30 μg/kg iv qd × 3, 2nd day, (I)): 100%
relative survival rate (30 μg/kg iv qd × 3, 2nd day, (II)): 100%
relative survival rate (30 μg/kg iv qd × 3, 3rd day, (I)): 100%
relative survival rate (30 μg/kg iv qd × 3, 3rd day, (II)): 100%
relative survival rate (30 μg/kg iv qd × 3, 4th day, (I)): 95%
relative survival rate (30 μg/kg iv qd × 3, 4th day, (II)): 100%
relative survival rate (30 μg/kg iv qd × 3, 5th day, (I)): 90%
relative survival rate (30 μg/kg iv qd × 3, 5th day, (II)): 95%
relative survival rate (30 μg/kg iv qd × 3, 6th day, (I)): 80%
relative survival rate (30 μg/kg iv qd × 3, 6th day, (II)): 80%
relative survival rate (30 μg/kg iv qd × 3, 7th day, (I)): 70%
relative survival rate (30 μg/kg iv qd × 3, 7th day, (II)): 75%
relative survival rate (30 μg/kg iv qd × 3, killed, (I)): 65%
relative survival rate (30 μg/kg iv qd × 3, killed, (II)): 75%
relative survival rate (30 μg/kg iv qd × 5, 1st day, (I)): 100%
relative survival rate (30 μg/kg iv qd × 5, 1st day, (II)): 100%
relative survival rate (30 μg/kg iv qd × 5, 1st day, Example 5 (I)): 100%
relative survival rate (30 μg/kg iv qd × 5, 1st day, Example 5 (II)): 100%
relative survival rate (30 μg/kg iv qd × 5, 2nd day, (I)): 100%
relative survival rate (30 μg/kg iv qd × 5, 2nd day, (II)): 100%
relative survival rate (30 μg/kg iv qd × 5, 2nd day, Example 5 (I)): 100%
relative survival rate (30 μg/kg iv qd × 5, 2nd day, Example 5 (II)): 100%
relative survival rate (30 μg/kg iv qd × 5, 3rd day, (I)): 100%
relative survival rate (30 μg/kg iv qd × 5, 3rd day, (II)): 100%
relative survival rate (30 μg/kg iv qd × 5, 3rd day, Example 5 (I)): 100%
relative survival rate (30 μg/kg iv qd × 5, 3rd day, Example 5 (II)): 100%
relative survival rate (30 μg/kg iv qd × 5, 4th day, (I)): 100%
relative survival rate (30 μg/kg iv qd × 5, 4th day, (II)): 100%
relative survival rate (30 μg/kg iv qd × 5, 4th day, Example 5 (I)): 100%
relative survival rate (30 μg/kg iv qd × 5, 4th day, Example 5 (II)): 100%
relative survival rate (30 μg/kg iv qd × 5, 5th day, (I)): 100%
relative survival rate (30 μg/kg iv qd × 5, 5th day, (II)): 95%
relative survival rate (30 μg/kg iv qd × 5, 5th day, Example 5 (I)): 95%
relative survival rate (30 μg/kg iv qd × 5, 5th day, Example 5 (II)): 95%
relative survival rate (30 μg/kg iv qd × 5, 6th day, (I)): 90%
relative survival rate (30 μg/kg iv qd × 5, 6th day, (II)): 90%
relative survival rate (30 μg/kg iv qd × 5, 6th day, Example 5 (I)): 95%
relative survival rate (30 μg/kg iv qd × 5, 6th day, Example 5 (II)): 95%
relative survival rate (30 μg/kg iv qd × 5, 7th day, (I)): 85%
relative survival rate (30 μg/kg iv qd × 5, 7th day, (II)): 85%
relative survival rate (30 μg/kg iv qd × 5, 7th day, Example 5 (I)): 90%
relative survival rate (30 μg/kg iv qd × 5, 7th day, Example 5 (II)): 90%
relative survival rate (30 μg/kg iv qd × 5, killed, (I)): 80%
relative survival rate (30 μg/kg iv qd × 5, killed, (II)): 85%
relative survival rate (30 μg/kg iv qd × 5, killed, Example 5 (I)): 85%
relative survival rate (30 μg/kg iv qd × 5, killed, Example 5 (II)): 80% and 90%
relative survival rate (30 μg/kg iv qd × 7, 1st day, (I)): 100%
relative survival rate (30 μg/kg iv qd × 7, 1st day, (II)): 100%
relative survival rate (30 μg/kg iv qd × 7, 2nd day, (I)): 100%
relative survival rate (30 μg/kg iv qd × 7, 2nd day, (II)): 100%
relative survival rate (30 μg/kg iv qd × 7, 3rd day, (I)): 100%
relative survival rate (30 μg/kg iv qd × 7, 4th day, (I)): 100%
relative survival rate (30 μg/kg iv qd × 7, 5th day, (I)): 100%
relative survival rate (30 μg/kg iv qd × 7, 6th day, (I)): 90%
relative survival rate (30 μg/kg iv qd × 7, 7th day, (I)): 90%
relative survival rate (30 μg/kg iv qd × 7, killed, (I)): 85%
relative survival rate (30 μg/kg iv qd × 7, killed, (II)): 80%
